Measurements taken from patent US20240239881A1 (Innovent, published 2024).

Columns and labels:
[1] = target: T1, hAng2-Fc protein (Sino Biological, Cat No.: 10691-H02H) (human, UniProt O15123 19-496); test: cell-based or functional assay
T1 sequence: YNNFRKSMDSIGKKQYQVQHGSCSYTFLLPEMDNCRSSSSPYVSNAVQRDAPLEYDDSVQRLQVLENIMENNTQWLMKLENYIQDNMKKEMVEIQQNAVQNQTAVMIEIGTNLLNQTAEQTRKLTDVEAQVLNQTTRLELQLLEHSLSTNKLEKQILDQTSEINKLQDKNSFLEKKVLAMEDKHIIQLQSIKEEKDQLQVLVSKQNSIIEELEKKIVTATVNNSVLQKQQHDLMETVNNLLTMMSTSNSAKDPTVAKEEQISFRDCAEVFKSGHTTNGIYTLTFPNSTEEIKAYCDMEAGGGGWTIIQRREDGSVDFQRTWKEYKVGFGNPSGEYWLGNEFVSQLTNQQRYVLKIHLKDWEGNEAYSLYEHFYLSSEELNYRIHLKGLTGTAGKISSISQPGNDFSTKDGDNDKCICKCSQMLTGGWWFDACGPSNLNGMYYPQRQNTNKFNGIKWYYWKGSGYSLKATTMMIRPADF

Rhesus ANG2 = target: T2, Rhesus ANG2 (rhesus, UniProt F6QXG0 19-496); test: SPR, Biacore T200, antibody captured on Protein G chip, experiment 2
T2 sequence: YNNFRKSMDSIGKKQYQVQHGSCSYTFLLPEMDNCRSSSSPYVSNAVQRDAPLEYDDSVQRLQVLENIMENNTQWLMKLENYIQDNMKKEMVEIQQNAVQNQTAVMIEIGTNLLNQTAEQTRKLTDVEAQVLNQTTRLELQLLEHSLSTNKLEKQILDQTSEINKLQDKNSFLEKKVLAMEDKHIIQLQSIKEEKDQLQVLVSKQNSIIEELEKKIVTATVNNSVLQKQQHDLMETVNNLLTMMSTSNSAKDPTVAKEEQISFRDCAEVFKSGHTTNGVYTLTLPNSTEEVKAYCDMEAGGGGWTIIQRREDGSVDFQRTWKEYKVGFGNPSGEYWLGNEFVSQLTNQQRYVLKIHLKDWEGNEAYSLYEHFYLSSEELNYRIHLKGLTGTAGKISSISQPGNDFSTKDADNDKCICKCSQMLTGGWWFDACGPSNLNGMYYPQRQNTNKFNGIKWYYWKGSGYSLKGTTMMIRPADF
Description: (§1) The antibody was diluted to 1 μg/mL and was captured onto channel 2 for 30 s, and channel 1 was the blank control channel. The gradient-diluted Human ANG2, Rhesus ANG2, Rabbit ANG2, Rat ANG2 and Mouse ANG2 were sequentially injected into channels 1 and 2 of the chip, from low to high concentrations (0-32 nM), at a flow rate of 30 μL/min, with one concentration per cycle, and with 180 s association time and 1200 s dissociation time at 25° C. Finally, the chip was regenerated using Glycine pH 1.5 at 30 μL/min for 30 s. The affinity assay was repeated three times.

Rabbit ANG2 = target: T3, Rabbit ANG2 (rabbit, UniProt G1T9B3 19-496); test: as above
T3 sequence: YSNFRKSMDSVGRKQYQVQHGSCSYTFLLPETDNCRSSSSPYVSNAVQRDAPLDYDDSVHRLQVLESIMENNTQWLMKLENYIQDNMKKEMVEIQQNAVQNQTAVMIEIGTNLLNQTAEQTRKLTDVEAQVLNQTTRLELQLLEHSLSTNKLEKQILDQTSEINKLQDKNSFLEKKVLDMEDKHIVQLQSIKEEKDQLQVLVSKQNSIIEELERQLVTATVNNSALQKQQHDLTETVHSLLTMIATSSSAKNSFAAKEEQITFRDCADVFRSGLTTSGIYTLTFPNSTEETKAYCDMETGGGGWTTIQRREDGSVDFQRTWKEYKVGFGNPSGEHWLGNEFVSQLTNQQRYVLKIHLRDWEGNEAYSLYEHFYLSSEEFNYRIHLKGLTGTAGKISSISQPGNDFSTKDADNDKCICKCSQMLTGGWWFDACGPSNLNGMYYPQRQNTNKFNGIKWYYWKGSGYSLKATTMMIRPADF
Description: as §1

human Ang2 = target: T4, human Ang2 (human, UniProt O15123 19-496, limits assumed); test: as above
T4 construct: also called hAng2; h Ang2
T4 sequence: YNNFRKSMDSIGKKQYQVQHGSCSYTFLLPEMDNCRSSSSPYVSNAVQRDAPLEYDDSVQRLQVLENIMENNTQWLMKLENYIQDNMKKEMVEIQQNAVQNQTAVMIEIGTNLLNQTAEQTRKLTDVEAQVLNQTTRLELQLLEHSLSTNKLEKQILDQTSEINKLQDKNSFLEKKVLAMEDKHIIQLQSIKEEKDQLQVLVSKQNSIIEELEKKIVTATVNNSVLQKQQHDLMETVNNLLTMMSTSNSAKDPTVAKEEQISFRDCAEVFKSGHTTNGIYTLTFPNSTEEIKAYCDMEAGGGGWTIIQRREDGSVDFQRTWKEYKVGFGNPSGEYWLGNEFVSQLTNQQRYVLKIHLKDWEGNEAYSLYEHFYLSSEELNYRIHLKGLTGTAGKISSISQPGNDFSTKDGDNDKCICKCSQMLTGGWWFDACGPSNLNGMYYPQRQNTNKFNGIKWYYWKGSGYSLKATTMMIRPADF
Description: as §1

[2] = target: T5, recombinant biotinylated hAngiopoietin-2 protein (R&D, Cat. No.: BT623B/CF) (human, UniProt O15123 19-496, limits assumed, biotinylated (sites not given)); test: ELISA: biotin Ang2 (R&D BT623B/CF) captured on coated streptavidin (SA), antibody titrated, anti-human IgG-HRP, OD450-OD620, GraphPad fit
T5 construct: Bought protein; also called Biotin Ang2; human biotin Ang2 protein
T5 sequence: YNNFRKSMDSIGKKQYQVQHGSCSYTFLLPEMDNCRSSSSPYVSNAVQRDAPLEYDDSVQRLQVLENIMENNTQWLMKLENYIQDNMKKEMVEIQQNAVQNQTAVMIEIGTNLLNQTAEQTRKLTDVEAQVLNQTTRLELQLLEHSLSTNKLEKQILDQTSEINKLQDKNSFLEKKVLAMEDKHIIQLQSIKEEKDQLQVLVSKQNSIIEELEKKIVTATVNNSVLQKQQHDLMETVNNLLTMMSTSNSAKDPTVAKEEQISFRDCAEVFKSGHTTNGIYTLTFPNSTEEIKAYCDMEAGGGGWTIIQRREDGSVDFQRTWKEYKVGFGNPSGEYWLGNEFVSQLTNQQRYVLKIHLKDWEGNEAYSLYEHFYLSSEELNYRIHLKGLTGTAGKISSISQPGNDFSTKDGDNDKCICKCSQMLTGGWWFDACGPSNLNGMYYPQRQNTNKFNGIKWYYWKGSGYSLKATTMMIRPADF
Description: The binding of 81H10 and hz81H10.4 of the present invention to human biotin Ang2 protein was measured in an SA-biotin Ang2-based ELISA assay.
SA protein (Thermo Fisher) was diluted to 1 μg/ml with PBS, and was coated onto a microtiter plate at 100 μl/well at 4° C. overnight. After three washes with PBST, the plate was blocked with 5% BSA for 1 h. Biotin Ang2 (R&D, Cat. No. BT623B/CF) was incubated at a concentration of 0.5 μg/ml for 1 h. Gradient diluted antibodies (maximum concentration 20 nM, 1:3 serial dilution) were added to the microtiter plate and incubated for 2 h, and the plate was washed three times with PBST. […] Then the plate was washed for 6 times with PBST. Chromogenic reaction was performed with 100 ul TMB and terminated with 100 ul 2N sulfuric acid. The reading of OD₄₅₀-OD₆₂₀ was taken by microplate reader. The concentration-dependent curve was fitted with GraphPad based on the OD₄₅₀-OD₆₂₀.

- IC50 (read off the curve) [1]: ~5 nM
- Kd (Rhesus ANG2): 0.126 nM
- koff (Rhesus ANG2): 3.67e-05 s⁻¹
- kon (Rhesus ANG2): 291000 M⁻¹ s⁻¹
- Kd (Rabbit ANG2): 0.477 nM
- koff (Rabbit ANG2): 0.000152 s⁻¹
- kon (Rabbit ANG2): 318000 M⁻¹ s⁻¹
- Kd (human Ang2): 0.0319 nM
- koff (human Ang2): 8.25e-06 s⁻¹
- kon (human Ang2): 259000 M⁻¹ s⁻¹
- EC50 [2]: 0.0212 nM
B1: humanized antibody hz81H10.4 (antibody, human IgG1, kappa, V domains shown)
VH: EVQLVESGGGLVKPGGSLRLSCAASGFTFSNYWMNWVRQAPGKGLEWVAEIRLKSNNYATHYAESVKGRFTISRDVSKNTVYLQMNSLKTEDTAVYYCTDTAPFAYWGQGTLVTVSS
VL: DIQMTQSPSSLSASVGDRVTITCKASQDVGTDVAWYQQKPGKAPKLLIYWASTRHTGVPSRFSGSGSGTDFTLTISSLQPEDFATYYCQQYSSYPLTFGGGTKVEIKR
notes: also called IBI335
